According to US12679878B2, “CRF2 receptor agonists and their use in therapy” (SANOFI, priority 2020, dated 2026):
Starred links: 1 amine or outer side, 2 acyl side, 3 side chain; linkers in the order of their positions; H or OH if unused. Non-standard residues stand in square brackets, D forms with d. Groups on a side chain read outwards from the residue. No end group written: not given here. *: point of attachment. C16 diacid = O=C(O)CCCCCCCCCCCCCCC(=O)*; γGlu = O=C(O)[C@H](CCC(=O)[*:2])N[*:1]; Palmitoyl = CCCCCCCCCCCCCCCC(=O)*; Aib = CC(C)(N)C(=O)O

T1: CRF1R receptor (anti-target) (UniProt P34998 24-415, limits assumed)
T1 sequence (looked up): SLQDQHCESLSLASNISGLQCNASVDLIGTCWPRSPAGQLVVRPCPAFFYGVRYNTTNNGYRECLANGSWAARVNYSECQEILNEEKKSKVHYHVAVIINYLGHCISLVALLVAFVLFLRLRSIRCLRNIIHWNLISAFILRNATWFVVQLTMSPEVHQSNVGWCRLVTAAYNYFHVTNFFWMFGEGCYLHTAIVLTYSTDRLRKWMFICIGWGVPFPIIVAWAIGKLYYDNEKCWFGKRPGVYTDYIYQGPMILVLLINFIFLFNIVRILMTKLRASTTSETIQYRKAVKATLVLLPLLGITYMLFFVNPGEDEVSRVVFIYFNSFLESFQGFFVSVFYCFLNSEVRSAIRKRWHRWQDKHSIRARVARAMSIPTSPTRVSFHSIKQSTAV

B1: peptide of SEQ ID NO: 188 (peptide)
peptide: IVLSLD[dV]PIKLK([γGlu-C16 diacid])QILLKQERQK[Aib]QRQQAEKNKQILAQV-NH2
modifications: N-terminus assumed
SMILES: CC[C@H](C)[C@H](N)C(=O)N[C@H](C(=O)N[C@@H](CC(C)C)C(=O)N[C@@H](CO)C(=O)N[C@@H](CC(C)C)C(=O)N[C@@H](CC(=O)O)C(=O)N[C@@H](C(=O)N1CCC[C@H]1C(=O)N[C@H](C(=O)N[C@@H](CCCCN)C(=O)N[C@@H](CC(C)C)C(=O)N[C@@H](CCCCNC(=O)CC[C@H](NC(=O)CCCCCCCCCCCCCCC(=O)O)C(=O)O)C(=O)N[C@@H](CCC(N)=O)C(=O)N[C@H](C(=O)N[C@@H](CC(C)C)C(=O)N[C@@H](CC(C)C)C(=O)N[C@@H](CCCCN)C(=O)N[C@@H](CCC(N)=O)C(=O)N[C@@H](CCC(=O)O)C(=O)N[C@@H](CCCNC(=N)N)C(=O)N[C@@H](CCC(N)=O)C(=O)N[C@@H](CCCCN)C(=O)NC(C)(C)C(=O)N[C@@H](CCC(N)=O)C(=O)N[C@@H](CCCNC(=N)N)C(=O)N[C@@H](CCC(N)=O)C(=O)N[C@@H](CCC(N)=O)C(=O)N[C@@H](C)C(=O)N[C@@H](CCC(=O)O)C(=O)N[C@@H](CCCCN)C(=O)N[C@@H](CC(N)=O)C(=O)N[C@@H](CCCCN)C(=O)N[C@@H](CCC(N)=O)C(=O)N[C@H](C(=O)N[C@@H](CC(C)C)C(=O)N[C@@H](C)C(=O)N[C@@H](CCC(N)=O)C(=O)N[C@H](C(N)=O)C(C)C)[C@@H](C)CC)[C@@H](C)CC)[C@@H](C)CC)C(C)C)C(C)C
B2: peptide of SEQ ID NO: 192 (peptide)
peptide: IVLSLD[dV]PIKLK([γGlu-C16 diacid])QILLKQERQKKQRQQAEKNKQILAQV-NH2
modifications: N-terminus assumed
SMILES: CC[C@H](C)[C@H](N)C(=O)N[C@H](C(=O)N[C@@H](CC(C)C)C(=O)N[C@@H](CO)C(=O)N[C@@H](CC(C)C)C(=O)N[C@@H](CC(=O)O)C(=O)N[C@@H](C(=O)N1CCC[C@H]1C(=O)N[C@H](C(=O)N[C@@H](CCCCN)C(=O)N[C@@H](CC(C)C)C(=O)N[C@@H](CCCCNC(=O)CC[C@H](NC(=O)CCCCCCCCCCCCCCC(=O)O)C(=O)O)C(=O)N[C@@H](CCC(N)=O)C(=O)N[C@H](C(=O)N[C@@H](CC(C)C)C(=O)N[C@@H](CC(C)C)C(=O)N[C@@H](CCCCN)C(=O)N[C@@H](CCC(N)=O)C(=O)N[C@@H](CCC(=O)O)C(=O)N[C@@H](CCCNC(=N)N)C(=O)N[C@@H](CCC(N)=O)C(=O)N[C@@H](CCCCN)C(=O)N[C@@H](CCCCN)C(=O)N[C@@H](CCC(N)=O)C(=O)N[C@@H](CCCNC(=N)N)C(=O)N[C@@H](CCC(N)=O)C(=O)N[C@@H](CCC(N)=O)C(=O)N[C@@H](C)C(=O)N[C@@H](CCC(=O)O)C(=O)N[C@@H](CCCCN)C(=O)N[C@@H](CC(N)=O)C(=O)N[C@@H](CCCCN)C(=O)N[C@@H](CCC(N)=O)C(=O)N[C@H](C(=O)N[C@@H](CC(C)C)C(=O)N[C@@H](C)C(=O)N[C@@H](CCC(N)=O)C(=O)N[C@H](C(N)=O)C(C)C)[C@@H](C)CC)[C@@H](C)CC)[C@@H](C)CC)C(C)C)C(C)C
B3: peptide of SEQ ID NO: 204 (peptide)
peptide: IVLSLD[dV]PIKLK([γGlu-Palmitoyl])QILLKQERQK[Aib]QREQAEKNKQILAQV-NH2
modifications: N-terminus assumed
SMILES: CCCCCCCCCCCCCCCC(=O)N[C@@H](CCC(=O)NCCCC[C@H](NC(=O)[C@H](CC(C)C)NC(=O)[C@H](CCCCN)NC(=O)[C@@H](NC(=O)[C@@H]1CCCN1C(=O)[C@H](NC(=O)[C@H](CC(=O)O)NC(=O)[C@H](CC(C)C)NC(=O)[C@H](CO)NC(=O)[C@H](CC(C)C)NC(=O)[C@@H](NC(=O)[C@@H](N)[C@@H](C)CC)C(C)C)C(C)C)[C@@H](C)CC)C(=O)N[C@@H](CCC(N)=O)C(=O)N[C@H](C(=O)N[C@@H](CC(C)C)C(=O)N[C@@H](CC(C)C)C(=O)N[C@@H](CCCCN)C(=O)N[C@@H](CCC(N)=O)C(=O)N[C@@H](CCC(=O)O)C(=O)N[C@@H](CCCNC(=N)N)C(=O)N[C@@H](CCC(N)=O)C(=O)N[C@@H](CCCCN)C(=O)NC(C)(C)C(=O)N[C@@H](CCC(N)=O)C(=O)N[C@@H](CCCNC(=N)N)C(=O)N[C@@H](CCC(=O)O)C(=O)N[C@@H](CCC(N)=O)C(=O)N[C@@H](C)C(=O)N[C@@H](CCC(=O)O)C(=O)N[C@@H](CCCCN)C(=O)N[C@@H](CC(N)=O)C(=O)N[C@@H](CCCCN)C(=O)N[C@@H](CCC(N)=O)C(=O)N[C@H](C(=O)N[C@@H](CC(C)C)C(=O)N[C@@H](C)C(=O)N[C@@H](CCC(N)=O)C(=O)N[C@H](C(N)=O)C(C)C)[C@@H](C)CC)[C@@H](C)CC)C(=O)O
B4: peptide of SEQ ID NO: 195 (peptide)
peptide: IVLSLD[dV]PIGLK([γGlu-C16 diacid])QILLKQERQKK[Aib]RQQAETNKRILERV-NH2
modifications: N-terminus assumed
SMILES: CC[C@H](C)[C@H](N)C(=O)N[C@H](C(=O)N[C@@H](CC(C)C)C(=O)N[C@@H](CO)C(=O)N[C@@H](CC(C)C)C(=O)N[C@@H](CC(=O)O)C(=O)N[C@@H](C(=O)N1CCC[C@H]1C(=O)N[C@H](C(=O)NCC(=O)N[C@@H](CC(C)C)C(=O)N[C@@H](CCCCNC(=O)CC[C@H](NC(=O)CCCCCCCCCCCCCCC(=O)O)C(=O)O)C(=O)N[C@@H](CCC(N)=O)C(=O)N[C@H](C(=O)N[C@@H](CC(C)C)C(=O)N[C@@H](CC(C)C)C(=O)N[C@@H](CCCCN)C(=O)N[C@@H](CCC(N)=O)C(=O)N[C@@H](CCC(=O)O)C(=O)N[C@@H](CCCNC(=N)N)C(=O)N[C@@H](CCC(N)=O)C(=O)N[C@@H](CCCCN)C(=O)N[C@@H](CCCCN)C(=O)NC(C)(C)C(=O)N[C@@H](CCCNC(=N)N)C(=O)N[C@@H](CCC(N)=O)C(=O)N[C@@H](CCC(N)=O)C(=O)N[C@@H](C)C(=O)N[C@@H](CCC(=O)O)C(=O)N[C@H](C(=O)N[C@@H](CC(N)=O)C(=O)N[C@@H](CCCCN)C(=O)N[C@@H](CCCNC(=N)N)C(=O)N[C@H](C(=O)N[C@@H](CC(C)C)C(=O)N[C@@H](CCC(=O)O)C(=O)N[C@@H](CCCNC(=N)N)C(=O)N[C@H](C(N)=O)C(C)C)[C@@H](C)CC)[C@@H](C)O)[C@@H](C)CC)[C@@H](C)CC)C(C)C)C(C)C
B5: peptide of SEQ ID NO: 196 (peptide)
peptide: IVLSLD[dV]PIGLK([γGlu-C16 diacid])QILLKQERQKK[Aib]REQAEKNKRILERV-NH2
modifications: N-terminus assumed
SMILES: CC[C@H](C)[C@H](N)C(=O)N[C@H](C(=O)N[C@@H](CC(C)C)C(=O)N[C@@H](CO)C(=O)N[C@@H](CC(C)C)C(=O)N[C@@H](CC(=O)O)C(=O)N[C@@H](C(=O)N1CCC[C@H]1C(=O)N[C@H](C(=O)NCC(=O)N[C@@H](CC(C)C)C(=O)N[C@@H](CCCCNC(=O)CC[C@H](NC(=O)CCCCCCCCCCCCCCC(=O)O)C(=O)O)C(=O)N[C@@H](CCC(N)=O)C(=O)N[C@H](C(=O)N[C@@H](CC(C)C)C(=O)N[C@@H](CC(C)C)C(=O)N[C@@H](CCCCN)C(=O)N[C@@H](CCC(N)=O)C(=O)N[C@@H](CCC(=O)O)C(=O)N[C@@H](CCCNC(=N)N)C(=O)N[C@@H](CCC(N)=O)C(=O)N[C@@H](CCCCN)C(=O)N[C@@H](CCCCN)C(=O)NC(C)(C)C(=O)N[C@@H](CCCNC(=N)N)C(=O)N[C@@H](CCC(=O)O)C(=O)N[C@@H](CCC(N)=O)C(=O)N[C@@H](C)C(=O)N[C@@H](CCC(=O)O)C(=O)N[C@@H](CCCCN)C(=O)N[C@@H](CC(N)=O)C(=O)N[C@@H](CCCCN)C(=O)N[C@@H](CCCNC(=N)N)C(=O)N[C@H](C(=O)N[C@@H](CC(C)C)C(=O)N[C@@H](CCC(=O)O)C(=O)N[C@@H](CCCNC(=N)N)C(=O)N[C@H](C(N)=O)C(C)C)[C@@H](C)CC)[C@@H](C)CC)[C@@H](C)CC)C(C)C)C(C)C
B6: peptide of SEQ ID NO: 197 (peptide)
peptide: IVLSLD[dV]PIKLK([γGlu-C16 diacid])QILLKQARQK[Aib]QRAQAEKNKRILERV-NH2
modifications: N-terminus assumed
SMILES: CC[C@H](C)[C@H](N)C(=O)N[C@H](C(=O)N[C@@H](CC(C)C)C(=O)N[C@@H](CO)C(=O)N[C@@H](CC(C)C)C(=O)N[C@@H](CC(=O)O)C(=O)N[C@@H](C(=O)N1CCC[C@H]1C(=O)N[C@H](C(=O)N[C@@H](CCCCN)C(=O)N[C@@H](CC(C)C)C(=O)N[C@@H](CCCCNC(=O)CC[C@H](NC(=O)CCCCCCCCCCCCCCC(=O)O)C(=O)O)C(=O)N[C@@H](CCC(N)=O)C(=O)N[C@H](C(=O)N[C@@H](CC(C)C)C(=O)N[C@@H](CC(C)C)C(=O)N[C@@H](CCCCN)C(=O)N[C@@H](CCC(N)=O)C(=O)N[C@@H](C)C(=O)N[C@@H](CCCNC(=N)N)C(=O)N[C@@H](CCC(N)=O)C(=O)N[C@@H](CCCCN)C(=O)NC(C)(C)C(=O)N[C@@H](CCC(N)=O)C(=O)N[C@@H](CCCNC(=N)N)C(=O)N[C@@H](C)C(=O)N[C@@H](CCC(N)=O)C(=O)N[C@@H](C)C(=O)N[C@@H](CCC(=O)O)C(=O)N[C@@H](CCCCN)C(=O)N[C@@H](CC(N)=O)C(=O)N[C@@H](CCCCN)C(=O)N[C@@H](CCCNC(=N)N)C(=O)N[C@H](C(=O)N[C@@H](CC(C)C)C(=O)N[C@@H](CCC(=O)O)C(=O)N[C@@H](CCCNC(=N)N)C(=O)N[C@H](C(N)=O)C(C)C)[C@@H](C)CC)[C@@H](C)CC)[C@@H](C)CC)C(C)C)C(C)C

Each binder was assayed against T1, CRF1R receptor (anti-target) (assay: cell-based or functional assay).
In the case of B1, the “CRF1/CRF2 ratio (of EC50)” value is reported as 134 and the “CRF1 EC50 (cAMP, HTRF)” value is reported as 69.1 nM. B2 was tested, and the “CRF1/CRF2 ratio (of EC50)” value was 68 and the “CRF1 EC50 (cAMP, HTRF)” value was 56.6 nM. For B3, the “CRF1/CRF2 ratio (of EC50)” value was 3 and the “CRF1 EC50 (cAMP, HTRF)” value was 0.44 nM.

Each binder was assayed against human corticotropin-releasing factor 2α receptor (CRF2α receptor) (human), Q13324 (assay: cell-based or functional assay).
Chain of human corticotropin-releasing factor 2α receptor (CRF2α receptor) (human), Q13324 (Q13324 20-411): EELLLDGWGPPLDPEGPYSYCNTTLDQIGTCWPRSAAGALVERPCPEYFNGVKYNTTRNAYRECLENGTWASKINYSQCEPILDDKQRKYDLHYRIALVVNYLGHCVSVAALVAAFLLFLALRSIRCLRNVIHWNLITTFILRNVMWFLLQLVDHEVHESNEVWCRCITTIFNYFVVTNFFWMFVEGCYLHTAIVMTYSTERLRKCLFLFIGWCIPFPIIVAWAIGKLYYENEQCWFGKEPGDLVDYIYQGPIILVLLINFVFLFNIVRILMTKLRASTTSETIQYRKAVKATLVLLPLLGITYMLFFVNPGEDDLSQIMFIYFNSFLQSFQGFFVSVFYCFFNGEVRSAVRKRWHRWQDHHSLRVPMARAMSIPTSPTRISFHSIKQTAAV
In the case of B1, the CRF2 EC50 (cAMP, HTRF) is reported as 0.46 nM. B2 showed a CRF2 EC50 (cAMP, HTRF) of 0.83 nM. Binder B4 has a CRF2 EC50 (cAMP, HTRF) of 0.34 nM. With B5 the CRF2 EC50 (cAMP, HTRF) was 1.08 nM. With B6 the CRF2 EC50 (cAMP, HTRF) was 2.27 nM. With B3 the CRF2 EC50 (cAMP, HTRF) was 0.14 nM.

These binders were tested against human corticotropin-releasing factor 2α (CRF2α receptor) (human), Q13324 (assay: cell-based or functional assay).
Chain of human corticotropin-releasing factor 2α (CRF2α receptor) (human), Q13324 (Q13324 20-411): as above
For B1, the EC50 [nM], 0% HSA (cAMP, HTRF) was 0.46 nM. B2 gave an EC50 [nM], 0% HSA (cAMP, HTRF) of 0.83 nM. B4 showed an EC50 [nM], 0% HSA (cAMP, HTRF) of 0.34 nM. B5 showed an EC50 [nM], 0% HSA (cAMP, HTRF) of 1.08 nM. B6 showed an EC50 [nM], 0% HSA (cAMP, HTRF) of 2.27 nM. With B3 the EC50 [nM], 0% HSA (cAMP, HTRF) was 0.14 nM.
